Source: US20210238298A1

Biological target: CD86 mutant 1040 conjugated to an anti-CD40 antibody as part of a bispecific molecule (human)
Experiment: inhibition ELISA: CD86 mutant 1040 on an anti-CD40 antibody pre-incubated with the soluble CTLA-4 in a dilution series, mixture added to coated human CTLA-4 (the competitor)

Sequence of CD86 mutant 1040 conjugated to an anti-CD40 antibody as part of a bispecific molecule (human) (chain, as listed by the source limits assumed): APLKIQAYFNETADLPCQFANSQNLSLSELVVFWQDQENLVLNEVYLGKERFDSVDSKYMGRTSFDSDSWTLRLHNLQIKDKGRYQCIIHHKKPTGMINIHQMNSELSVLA

| Substance | IC50 (read off the curve) [µg/mL] |
| --- | --- |
| CTLA4-Fc (Fitzgerald, #30R-CD152) (from UniProt P16410 38-152) (Fc fusion) | 1 |
| soluble murine CTLA-4 (R&D systems) (from UniProt P09793 36-162) (receptor) | 0.8 |
